US20240336682A1 (SHENGHE CHINA BIOPHARMACEUTICAL, published 2024)
Like-named read-outs stand apart in the source and are kept apart here.

Key:
Human-CD24-His [1] = biological target: T1, Human-CD24-His (human, UniProt P25063 27-59); assay: ELISA, Human-CD24-His coated at 1 ug/mL, HRP goat anti-human IgG-Fc
T1 construct: also called CD24 protein; not shown: His tag
T1 chain (looked up): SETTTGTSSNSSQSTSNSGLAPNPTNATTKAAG
Description: (§1) Human-CD24-His was diluted to 1 μg/mL with PBS buffer at pH 7.4, added into the 96-well ELISA plate at 100 μL per well, coated overnight at 4° C., and blocked with 1% BSA blocking solution for 1 hour. The plate was washed 3 times with PBST, and the constructed antibodies were diluted to 20 μg/mL with 0.5% BSA sample diluent as the starting concentration, and then diluted by 3-fold gradient (11 gradients in total) and incubated at 37° C. for 1 h at 100 μL per well. The plate was washed 3 times with PBST, and then HRP-labelled goat anti-human IgG-Fc (jackson Cat: 109-035-098) was diluted with the sample diluent at 1:10000. 100 μL was added into each well, and incubated at room temperature for 1 hour. […] The absorbance value of each well in the 96-well plate was determined by selecting the wavelength of 450 nm and the reference wavelength of 570 nm on a multifunctional enzyme marker, and the absorbance value (OD)=OD₄₅₀ₙₘ−OD₅₇₀ₙₘ. The logarithm of the concentration of the constructed antibodies were taken as the abscissa, and the measured absorbance value of each well was taken as the ordinate, and the Sigmoidaldose-response (Variable Slope) method (GraphPad Prism software, GraphPad Software, San Diego, California) was selected for nonlinear regression to obtain the binding curve of the target antibodies to the CD24 protein.

Human-CD24-His [2] = biological target: T1, Human-CD24-His; assay: as above
Description: as §1

TGFβ1 [3] = biological target: T2, TGFβ1 (UniProt P01137 279-390, limits assumed); assay: ELISA, TGFb1 coated at 1 ug/mL, HRP goat anti-human IgG-Fc
T2 construct: also called TGFβ1 protein
T2 sequence (P01137 279-390 limits assumed): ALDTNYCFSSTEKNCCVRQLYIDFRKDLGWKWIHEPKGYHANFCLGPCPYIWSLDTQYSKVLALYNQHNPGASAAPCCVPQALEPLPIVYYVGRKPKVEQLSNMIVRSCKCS
Description: (§2) TGFβ1 was diluted to 1 μg/mL with PBS buffer at pH 7.4, added into the 96-well ELISA plate at 100 μL per well, coated overnight at 4° C., and blocked with 1% BSA blocking solution for 1 hour. The plate was washed 3 times with PBST, and the constructed expressing antibodies were diluted to 20 µg/mL with 0.5% BSA sample diluent as the starting concentration, and then diluted by 3-fold gradient (11 gradients in total). A negative control (blank well and IgG1 isotype control) and a positive control were set, and the positive control was TGF-βR2 (Acro, Cat: TG2-H5252), and incubated at 37° C. for 1 h at 100 μL per well. The plate was washed 3 times with PBST, and then HRP-labelled goat anti-human IgG-Fc was diluted with the sample diluent at 1:10000. […] The absorbance value of each well in the 96-well plate was determined by selecting the wavelength of 450 nm and the reference wavelength of 570 nm on a multifunctional enzyme marker, and the absorbance value (OD)=OD₄₅₀ₙₘ−OD₅₇₀ₙₘ. The logarithm of the concentration of the constructed antibodies were taken as the abscissa, and the measured absorbance value of each well was taken as the ordinate, and the Sigmoidaldose-response (Variable Slope) method (GraphPad Prism software, GraphPad Software, San Diego, California) was selected for nonlinear regression to obtain the binding curve of the target antibodies to the TGFβ1 protein.

TGFβ1 [4] = biological target: T2, TGFβ1; assay: as above; remark: listed apart in the source
Description: as §2

TGFβ1 [5] = biological target: T2, TGFβ1; assay: as above; remark: listed apart in the source
Description: as §2

Human-NKP30-His [6] = biological target: T3, Human-NKP30-His (human, UniProt O14931 19-135); assay: ELISA, Human-NKP30-His coated at 0.5 ug/mL, HRP goat anti-human IgG-Fc
T3 construct: also called NKP30 protein; not shown: His tag
T3 sequence (looked up): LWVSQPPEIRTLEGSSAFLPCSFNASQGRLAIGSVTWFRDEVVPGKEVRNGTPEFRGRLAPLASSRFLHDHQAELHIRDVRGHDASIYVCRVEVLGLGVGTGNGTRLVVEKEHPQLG
Description: (§3) Human-NKP30-His was diluted to 0.5 μg/mL with PBS buffer at pH 7.4, added into the 96-well ELISA plate at 100 μL per well, coated overnight at 4° C., and blocked with 1% BSA blocking solution for 1 hour. The plate was washed 3 times with PBST, and the constructed antibodies were diluted to 10 μg/mL with 0.5% BSA sample diluent as the starting concentration, and then diluted by 3-fold gradient (11 gradients in total). A negative control (blank well and IgG1 isotype control) and a positive control were set, and the positive control was a NKP30 humanized antibody (sequence shown in SEQ ID No.32), and incubated at 37° C. for 1 h at 100 μL per well. […] The absorbance value of each well in the 96-well plate was determined by selecting the wavelength of 450 nm and the reference wavelength of 570 nm on a multifunctional enzyme marker, and the absorbance value (OD)=OD₄₅₀ₙₘ−OD₅₇₀ₙₘ. The logarithm of the concentration of the constructed antibodies were taken as the abscissa, and the measured absorbance value of each well was taken as the ordinate, and the Sigmoidaldose-response (Variable Slope) method (GraphPad Prism software, GraphPad Software, San Diego, California) was selected for nonlinear regression to obtain the binding curve of the target antibody to NKP30 protein.

Human-NKP30-His [7] = biological target: T3, Human-NKP30-His; assay: as above; remark: listed apart in the source
Description: as §3

Human-NKP30-His [8] = biological target: T3, Human-NKP30-His; assay: as above; remark: listed apart in the source
Description: as §3

Human-NKP30-His [9] = biological target: T3, Human-NKP30-His; assay: as above; remark: listed apart in the source
Description: as §3

B1: Positive control (antibody, human IgG1, kappa, V domains shown)
VH: QVQLVQSGSELKKPGASVKVSCKASGYIFTDYAIHWVRQAPGQGLEWMGFINTATGEPTYADDFKGRFVFSLDTSVSTAYLQISSLKAEDTAVYFCTSGVHWGQGTLVTVSS
VL: DIQMTQSPSTLSASVGDRVTITCSASSSVSSMHWYQQKPGKAPKLLIYSTSNLASGVPSRFSGSGSGTEYTLTISSLQPDDFATYYCHHWTSYMYTFGGGTKVEIKR
notes: The sheet only prints 'Positive control'; also called CD24 monoclonal antibody
Question: B1 was tested. Which “EC50 (read off the curve)” value (Human-CD24-His [1]) did it give?
Answer: ~0.01 µg/mL

Question: What about the “EC50 (read off the curve)” value (Human-CD24-His [2]) of the same binder?
Answer: ~0.006 µg/mL

B2: TGF-βR2 (Acro, Cat: TG2-H5252) (receptor, UniProt P37173 23-159, looked up)
chain: TIPPHVQKSVNNDMIVTDNNGAVKFPQLCKFCDVRFSTCDNQKSCMSNCSITSICEKPQEVCVAVWRKNDENITLETVCHDPKLPYHDFILEDAASPKCIMKEKKKPGETFFMCSCSSDECNDNIIFSEEYNTSNPD
notes: Bought reagent
Question: B2 was tested. Which “EC50 (read off the curve)” value (TGFβ1 [3]) did it give?
Answer: ~0.03 µg/mL

Question: And the “EC50 (read off the curve)” value (TGFβ1 [4])?
Answer: ~0.03 µg/mL

Question: What about the “EC50 (read off the curve)” value (TGFβ1 [5]) of the same binder?
Answer: ~0.04 µg/mL

B3: NKP30 humanized antibody (antibody, V domains shown)
VH: EVQLVESGGGLVQPGGSLRLSCAASGITFSRSVMGWFRQAPGKLRELVAGITSDDNTDYADSVKGRFTISRDNSKNTLYLQMNSLRAEDTAVYYCNILPDSRLGWGQGTLVTVSS
notes: It was detected with anti-human IgG-Fc
Question: Which results are given for B3?
Answer: EC50 (read off the curve) (Human-NKP30-His [6]): ~0.03 µg/mL; EC50 (read off the curve) (Human-NKP30-His [7]): ~0.02 µg/mL; EC50 (read off the curve) (Human-NKP30-His [8]): ~0.03 µg/mL; EC50 (read off the curve) (Human-NKP30-His [9]): ~0.03 µg/mL
